Blank lines part the entries; values can stand above or below the molecule they belong to. Bridges are numbered along the chain shown (N, C = ends). Where no end group is shown, it is not given here.
Columns and labels:
[1] = test system: multiple matrix-metalloproteases (MMPs); experiment: Matrix Metalloproteinase (MMP) Inhibitor Profiling Kit, positive control; type: biochemical; conditions: P<0.01
Procedure: FIG. 8A-B. Selectivity of P12-3A for IDE vis-à-vis other proteases. Activity of P12-3A (100 μM) against (A) multiple matrix-metalloproteases (MMPs) and (B) multiple peptidases of different protease classes. […] Data are mean±SEM, n=8-16 per group. P<0.05 by 2-tailed Student's t-test. […] See Experimental Procedures for details. NEP, neprilysin; mCatD, murine cathepsin D; hCatD, human cathepsin D.
Degradation Assays—IDE activity was quantified by monitoring the degradation of (7-methoxycoumarin-4-yl)acetic acid-[…](2,4-dinitrophenyl) (FRET1, 5 μM) (49,55), fluoresceinated and biotinylated amyloid β-protein (FAβB; 500 nM) or recombinant human insulin (50 nM) in PBS supplemented with 0.05% BSA. FRET1 degradation was measured by changes in fluorescence (λex=340 nm, λem=420 nm); FAβB degradation was monitored by fluorescence polarization (λex=488 nm, λem=525 nm), as described (56); and insulin degradation was quantified by ELISA. In vitro activity assays incorporated recombinant human IDE (1 nM) purified from bacteria (35). For quantitation of insulin degradation in primary murine skin fibroblasts, cells (1×10^5/well) were plated in 96-well plates and maintained in DMEM supplemented with 10% fetal bovine serum (FBS), 2 mM glutamine, penicillin and streptomycin. […]

[2] = molecular target: T1, recombinant human insulin-degrading enzyme (IDE) (human, UniProt P14735 42-1019, limits assumed); experiment: FRET1 activity assay after 0 or 4 h pre-incubation of the peptide with IDE
T1 construct: Used at 1 nM in the in vitro activity assays; immobilised on plates for phage panning
T1 sequence (looked up): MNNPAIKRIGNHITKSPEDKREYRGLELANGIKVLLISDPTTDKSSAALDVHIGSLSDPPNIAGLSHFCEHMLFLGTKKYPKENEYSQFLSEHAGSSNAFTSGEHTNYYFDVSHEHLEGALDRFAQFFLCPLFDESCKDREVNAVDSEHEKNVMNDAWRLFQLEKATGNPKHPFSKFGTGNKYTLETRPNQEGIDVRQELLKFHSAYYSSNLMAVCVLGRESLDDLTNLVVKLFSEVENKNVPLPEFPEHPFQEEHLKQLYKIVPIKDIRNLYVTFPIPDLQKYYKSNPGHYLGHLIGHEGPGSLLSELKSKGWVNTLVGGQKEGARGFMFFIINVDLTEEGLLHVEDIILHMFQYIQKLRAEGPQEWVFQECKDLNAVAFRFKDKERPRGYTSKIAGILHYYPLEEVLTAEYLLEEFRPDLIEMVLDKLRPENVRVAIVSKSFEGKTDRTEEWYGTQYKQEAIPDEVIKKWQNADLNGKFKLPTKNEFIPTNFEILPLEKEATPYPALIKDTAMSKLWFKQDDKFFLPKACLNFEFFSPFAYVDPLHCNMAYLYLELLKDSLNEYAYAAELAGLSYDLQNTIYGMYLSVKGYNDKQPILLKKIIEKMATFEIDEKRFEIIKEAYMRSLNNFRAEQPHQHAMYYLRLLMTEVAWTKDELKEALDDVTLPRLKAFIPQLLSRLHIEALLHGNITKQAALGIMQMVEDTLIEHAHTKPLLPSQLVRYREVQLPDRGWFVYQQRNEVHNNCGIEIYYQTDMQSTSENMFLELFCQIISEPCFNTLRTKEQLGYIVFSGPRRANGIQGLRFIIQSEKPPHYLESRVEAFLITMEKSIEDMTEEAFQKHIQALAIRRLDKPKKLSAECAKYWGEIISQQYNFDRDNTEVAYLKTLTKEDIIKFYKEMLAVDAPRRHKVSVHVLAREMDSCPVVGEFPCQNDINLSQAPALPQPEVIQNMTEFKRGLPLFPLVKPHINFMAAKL

[3] = molecular target: T1, recombinant human insulin-degrading …; experiment: IDE activity assay, FRET1 substrate; IC50 converted to Ki (Cheng-Prusoff)
[4] = molecular target: T1, recombinant human insulin-degrading …; experiment: IDE activity assay, insulin substrate (ELISA); IC50 converted to Ki (Cheng-Prusoff)
[5] = molecular target: T1, recombinant human insulin-degrading …; experiment: IDE activity assay, FAβB degradation (fluorescence polarization)
[6] = molecular target: T1, recombinant human insulin-degrading …; experiment: IDE activity assay, FRET1 degradation

Molecule: COc1ccc(S(=O)(=O)N(CC(=O)NO)CC(C)C)cc1 [NNGH]
inhibition of MMPs by positive control [1]: significant inhibition

B1: P12-3A (QSLPWCYPHCVT-amide), as first synthesized, not deliberately cyclized (peptide)
peptide: H-QSLPWCYPHCVT-NH2
modifications: not fully specified; printed as QSLPWCYPHCVT-amide; cysteine pairing not given here
notes: also called C-terminally amidated variant of P12-3
fold increase in potency at the 4-h time point relative to t=0 [2]: 1 fold

Other lines, results leading:

Ki [3]: 8.9 µM | Ki [4]: 3.9 µM
B2: P12-3 (peptide)
peptide: H-QSLPWCYPHCVT-OH
modifications: not fully specified; cysteine pairing not given here
notes: Two cysteines predicted to form a disulfide bond; not deliberately cyclized before testing

Ki [5]: 2.1 µM | Ki [6]: 2.7 µM
Molecule: QSLPWCYPHCVT-NH2 (disulfide 6-10 (inferred), also called cyclized P12-3A) [P12-3A, deliberately cyclized, highly pure cosmetic-grade version]

Reference: patent US11555055B2, “Peptide inhibitors of insulin-degrading enzyme” (The Regents of the University of California, priority 2017, dated 2023)
